Consider 17 molecules from patent publication US20130315910A1 (Xencor, published 2013).

Changes are numbered by the printed parent chain. Names and notes keep the numbering of the source.

One may read the Kd as the equilibrium constant for the complex coming apart.

To fix the notation:
B1: L235F/S239D/L328Y (antibody, human IgG1, kappa)
heavy: EVQLVESGGGLVKPGGSLKLSCAASGYTFTSYVMHWVRQAPGKGLEWIGYINPYNDGTKYNEKFQGRVTISSDKSISTAYMELSSLRSEDTAMYYCARGTYYYGTRVFDYWGQGTLVTVSSASTKGPSVFPLAPSSKSTSGGTAALGCLVKDYFPEPVTVSWNSGALTSGVHTFPAVLQSSGLYSLSSVVTVPSSSLGTQTYICNVNHKPSNTKVDKKVEPKSCDKTHTCPPCPAPELFGGPDVFLFPPKPKDTLMISRTPEVTCVVVDVSHEDPEVKFNWYVDGVEVHNAKTKPREEQYNSTYRVVSVLTVLHQDWLNGKEYKCKVSNKAYPAPIEKTISKAKGQPREPQVYTLPPSREEMTKNQVSLTCLVKGFYPSDIAVEWESNGQPENNYKTTPPVLDSDGSFFLYSKLTVDKSRWQQGNVFSCSVMHEALHNHYTQKSLSLSPGK
light: DIVMTQSPATLSLSPGERATLSCRSSKSLQNVNGNTYLYWFQQKPGQSPQLLIYRMSNLNSGVPDRFSGSGSGTEFTLTISSLEPEDFAVYYCMQHLEYPITFGAGTKLEIKRTVAAPSVFIFPPSDEQLKSGTASVVCLLNNFYPREAKVQWKVDNALQSGNSQESVTEQDSKDSTYSLSSTLTLSKADYEKHKVYACEVTHQGLSSPVTKSFNRGEC
notes: HuAM4G7 anti-CD19 IgG1 (m1) with these Fc substitutions, EU index; copies: 2 + 2
B2: S239D/L328F/I332E (antibody, human IgG1, kappa)
heavy: B1 heavy with F239L, Y332F, I336E
light: B1 light
notes: as for B1
B3: S239D/H268D/L328F/I332E (antibody, human IgG1, kappa)
heavy: B1 heavy with F239L, H272D, Y332F, I336E
light: B1 light
notes: as for B1
B4: S239D/S267E/I332E (antibody, human IgG1, kappa)
heavy: B1 heavy with F239L, S271E, Y332L, I336E
light: B1 light
notes: as for B1
B5: S239D/H268E/L328Y (antibody, human IgG1, kappa)
heavy: B1 heavy with F239L, H272E
light: B1 light
notes: as for B1
B6: S239D/H268D/L328F (antibody, human IgG1, kappa)
heavy: B1 heavy with F239L, H272D, Y332F
light: B1 light
notes: as for B1
B7: H268D/A327D/L328Y (antibody, human IgG1, kappa)
heavy: B1 heavy with F239L, D243S, H272D, A331D
light: B1 light
notes: as for B1
B8: S239D/L328Y/I332E (antibody, human IgG1, kappa)
heavy: B1 heavy with F239L, I336E
light: B1 light
notes: as for B1
B9: S239D/L328Y (antibody, human IgG1, kappa)
heavy: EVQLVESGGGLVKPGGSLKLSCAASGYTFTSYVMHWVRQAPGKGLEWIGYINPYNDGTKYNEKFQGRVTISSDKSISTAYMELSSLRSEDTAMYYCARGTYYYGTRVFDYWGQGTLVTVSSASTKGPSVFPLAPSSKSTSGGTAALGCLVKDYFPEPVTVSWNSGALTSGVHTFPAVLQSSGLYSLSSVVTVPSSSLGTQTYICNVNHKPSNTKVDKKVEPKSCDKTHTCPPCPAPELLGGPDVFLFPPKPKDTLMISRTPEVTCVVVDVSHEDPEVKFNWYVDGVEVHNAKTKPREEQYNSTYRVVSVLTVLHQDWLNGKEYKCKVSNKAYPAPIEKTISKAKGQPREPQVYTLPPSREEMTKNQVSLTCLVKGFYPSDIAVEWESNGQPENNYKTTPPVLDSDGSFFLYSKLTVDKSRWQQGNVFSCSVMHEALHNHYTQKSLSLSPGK
light: B1 light
notes: as for B1
B10: S239D/H268D/L328Y (antibody, human IgG1, kappa)
heavy: B1 heavy with F239L, H272D
light: B1 light
notes: as for B1
B11: L328Y/I332E (antibody, human IgG1, kappa)
heavy: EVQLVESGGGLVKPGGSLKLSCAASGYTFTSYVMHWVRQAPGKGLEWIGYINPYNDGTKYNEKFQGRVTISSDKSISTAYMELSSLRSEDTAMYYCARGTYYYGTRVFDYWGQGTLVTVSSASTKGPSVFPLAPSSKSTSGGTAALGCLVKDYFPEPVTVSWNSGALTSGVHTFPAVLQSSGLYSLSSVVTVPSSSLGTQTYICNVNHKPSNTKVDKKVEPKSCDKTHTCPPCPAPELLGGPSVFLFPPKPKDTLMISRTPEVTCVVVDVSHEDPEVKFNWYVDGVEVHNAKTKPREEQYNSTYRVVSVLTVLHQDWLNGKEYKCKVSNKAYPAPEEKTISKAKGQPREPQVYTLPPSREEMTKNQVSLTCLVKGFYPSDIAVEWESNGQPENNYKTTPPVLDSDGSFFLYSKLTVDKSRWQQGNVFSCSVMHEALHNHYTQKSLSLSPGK
light: B1 light
notes: as for B1
B12: S239D/K326D/L328Y (antibody, human IgG1, kappa)
heavy: B1 heavy with F239L, K330D
light: B1 light
notes: as for B1
B13: S239D/H268D/L328Y/I332E (antibody, human IgG1, kappa)
heavy: B1 heavy with F239L, H272D, I336E
light: B1 light
notes: as for B1
B14: S239D/H268D/L328W/I332E (antibody, human IgG1, kappa)
heavy: B1 heavy with F239L, H272D, Y332W, I336E
light: B1 light
notes: as for B1
B15: S239D/S267A/L328Y (antibody, human IgG1, kappa)
heavy: B1 heavy with F239L, S271A
light: B1 light
notes: as for B1
B16: S239D/H268D/L328W (antibody, human IgG1, kappa)
heavy: B1 heavy with F239L, H272D, Y332W
light: B1 light
notes: as for B1
B17: P331S (antibody, human IgG1, kappa)
heavy: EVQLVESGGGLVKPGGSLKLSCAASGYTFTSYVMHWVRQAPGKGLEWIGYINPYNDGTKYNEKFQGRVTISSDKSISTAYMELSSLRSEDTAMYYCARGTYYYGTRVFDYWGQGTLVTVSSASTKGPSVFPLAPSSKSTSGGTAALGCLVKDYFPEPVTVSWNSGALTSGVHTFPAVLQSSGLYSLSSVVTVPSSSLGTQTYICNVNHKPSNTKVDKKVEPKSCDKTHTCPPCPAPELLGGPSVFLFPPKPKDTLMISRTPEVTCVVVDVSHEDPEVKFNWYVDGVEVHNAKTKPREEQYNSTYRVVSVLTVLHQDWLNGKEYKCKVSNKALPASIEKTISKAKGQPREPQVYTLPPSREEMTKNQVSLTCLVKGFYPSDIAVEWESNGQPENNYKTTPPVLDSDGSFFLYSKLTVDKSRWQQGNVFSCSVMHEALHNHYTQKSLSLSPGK
light: B1 light
notes: HuAM4G7 anti-CD19 IgG1 (m1) with this Fc substitution, EU index; copies: 2 + 2

The first assay deals with T1, human FcγRIIb receptor protein (R&D Systems) (human, UniProt P31994 46-217).
T1 construct: Bought protein injected over captured antibody in Biacore; also called CD32b
T1 sequence (looked up): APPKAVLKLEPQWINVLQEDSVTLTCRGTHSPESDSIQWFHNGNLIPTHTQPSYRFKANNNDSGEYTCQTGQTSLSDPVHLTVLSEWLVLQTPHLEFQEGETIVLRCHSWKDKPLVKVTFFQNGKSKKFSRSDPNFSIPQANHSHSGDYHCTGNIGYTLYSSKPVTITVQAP
Kind of assay: SPR. A general note: In SPR one partner is held on a chip, and binding of the other changes the refractive index at the surface.
For B1, the “Fold vs WT IgG1” value is 6.82 fold and the Kd stood at 0.215 µM.
For B2 the same measures were 8.34 fold and 0.176 µM.
Consider B3, for which the “Fold vs WT IgG1” value came out at 53.2 fold and the Kd is 0.0276 µM.
The matching figures for B4: 124 fold and 0.0118 µM.
On to B5, for which the “Fold vs WT IgG1” value worked out at 21.7 fold and binding was characterised by a dissociation constant (Kd) of 0.0677 µM.
For B6 the same measures were 8.79 fold and 0.167 µM.
In the case of B7, the “Fold vs WT IgG1” value came to 3.49 fold and the equilibrium dissociation constant (Kd) is 0.42 µM.
Consider B8, for which the “Fold vs WT IgG1” value is 7.41 fold and the dissociation constant (Kd) amounted to 0.198 µM.
Take B9: the “Fold vs WT IgG1” value is 5.56 fold and the Kd was 0.264 µM.
For B10 the same measures were 24.4 fold and 0.0601 µM.
B11: the “Fold vs WT IgG1” value turned out to be 2.08 fold and the Kd is 0.705 µM.
As for B12, the “Fold vs WT IgG1” value came out at 13 fold and the Kd came out at 0.113 µM.
The matching figures for B13: 54.1 fold and 0.0271 µM.
Take B14: the “Fold vs WT IgG1” value stood at 27.8 fold and the Kd was determined as 0.0527 µM.
For B15 the same measures were 19.8 fold and 0.0741 µM.
The matching figures for B16: 51.1 fold and 0.0287 µM.
B17: the “Fold vs WT IgG1” value worked out at 0.0372 fold and the Kd came to 39.4 µM.

The target of a further assay is T2, cynoFcγRIIb (Macaca fascicularis, UniProt A0A140HDP4).
T2 construct: extracellular region, C-terminal His- and GST-tag; also called cynomolgus monkey FcγRIIb
T2 sequence (receptor extracellular region): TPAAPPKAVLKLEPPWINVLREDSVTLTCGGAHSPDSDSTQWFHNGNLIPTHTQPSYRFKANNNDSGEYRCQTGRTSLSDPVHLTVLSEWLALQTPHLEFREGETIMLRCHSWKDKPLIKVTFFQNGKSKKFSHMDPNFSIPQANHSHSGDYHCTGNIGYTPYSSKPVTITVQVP
The assay can be described thus: SPR. As to the method: (§1) Variants were screened for receptor affinity using Biacore™ technology, also referred to as Biacore herein, a surface plasmon resonance (SPR) based technology for studying biomolecular interactions in real time. SPR measurements were performed using a Biacore 3000 instrument (Biacore, Piscataway, N.J.). A protein A/G (Pierce Biotechnology) CM5 biosensor chip (Biacore) was generated using a standard primary amine coupling protocol. All measurements were performed using HBS-EP buffer (10 mM HEPES pH 7.4, 0.15 M NaCl, 3 mM EDTA, 0.005% vol/vol surfactant P20, Biacore). Antibodies at 20 nM or 50 nM in HBS-EP buffer were immobilized on the protein A/G surface and FcγRs were injected. After each cycle, the surface was regenerated by injecting glycine buffer (10 mM, pH 1.5). Data were processed by zeroing time and response before the injection of FcγR and by subtracting appropriate nonspecific signals (response of reference channel and injection of running buffer). Kinetic analyses were performed by global fitting of binding data with a 1:1 Langmuir binding model using BIAevaluation software (Biacore).
(§2) Variant antibodies were tested for their affinity to mouse or cynologous monkey FcγRs using Biacore SPR as described above. Specifically, antibodies were first immobilized on a protein A/G chip to high density, and then followed by injections of the extracellular domain of the mouse or cynologous monkey FcγR of interest. Both association and dissociation phases were tracked in real time using the Biacore technology.
Consider B1, for which the “Fold vs WT IgG1 (Kd)” value came out at 5.2 fold.
Consider B2, for which the “Fold vs WT IgG1 (Kd)” value came out at 3.09 fold.
As to B3, the “Fold vs WT IgG1 (Kd)” value came to 27.6 fold.
Turning to B4, the “Fold vs WT IgG1 (Kd)” value worked out at 10 fold.
As to B5, the “Fold vs WT IgG1 (Kd)” value came to 5.87 fold.
Regarding B6, the “Fold vs WT IgG1 (Kd)” value is 3.17 fold.
In the case of B7, the “Fold vs WT IgG1 (Kd)” value was 3.58 fold.
Same read-out and setting: as for B8, the figure is 5.12 fold; as for B9, 2.13 fold.
On the same count and under the same terms, under B10 stands 22.2 fold; under B11, 4.6 fold.
The same measure, in the same setting: under B12 stands 10.2 fold; under B13, 9.1 fold; under B14, 4.55 fold.
Take B15: the “Fold vs WT IgG1 (Kd)” value turned out to be 6.46 fold.
On the same count and under the same terms, as for B16, the figure is 23.7 fold; as for B17, 0.25 fold.

The target in another assay is T3, mFcγRIIb (Mus musculus, UniProt P08101).
T3 construct: extracellular region, C-terminal His- and GST-tag; also called mouse FcγRII
T3 sequence (receptor extracellular region, looked up): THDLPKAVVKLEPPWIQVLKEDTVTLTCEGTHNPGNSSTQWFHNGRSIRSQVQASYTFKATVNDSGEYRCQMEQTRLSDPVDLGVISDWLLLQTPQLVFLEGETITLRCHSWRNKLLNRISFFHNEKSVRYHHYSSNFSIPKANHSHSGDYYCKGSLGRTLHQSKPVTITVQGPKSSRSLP
The assay can be described thus: SPR. On the procedure: as §1, §2
Regarding B1, the “Fold vs WT IgG1 (Kd)” value was determined as 31.2 fold.
Consider B2, for which the “Fold vs WT IgG1 (Kd)” value was 2.09 fold.
For B3, the “Fold vs WT IgG1 (Kd)” value stood at 2.59 fold.
Take B4: the “Fold vs WT IgG1 (Kd)” value amounted to 1 fold.
As for B5, the “Fold vs WT IgG1 (Kd)” value was 26.5 fold.
On the same count and under the same terms, as for B6, the figure is 6.01 fold; as for B7, 18.7 fold.
On the same count and under the same terms, as for B8, the figure is 1.7 fold; as for B9, 11.5 fold.
Consider B10, for which the “Fold vs WT IgG1 (Kd)” value was found to be 48.6 fold.
For the molecule B11, the “Fold vs WT IgG1 (Kd)” value was 0.434 fold.
In the case of B12, the “Fold vs WT IgG1 (Kd)” value amounted to 131 fold.
The same measure, in the same setting: as for B13, the figure is 3.04 fold.
Still for that read-out and setting: as for B14, the figure is 4.81 fold; as for B15, 46.5 fold; as for B16, 47.8 fold.
For B17, the “Fold vs WT IgG1 (Kd)” value came to 0.085 fold.
